Assay results from the supplement of paper PMC9170038.

Tested on: K4 kissing-loop RNA reporter
Experiment: apparent KD of K4 kissing-loop reporter; higher = weaker reporter binding
Settings: Eterna round: R107
Procedure: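 RNA-MaP round R107: designed RNA switches with theophylline, tryptophan, arginine or FMN aptamers are transcribed on-chip within common flanks. They are titrated with a labelled K4 kissing-loop RNA reporter in RNA-MaP buffer (100 mM Tris pH 7.5, 80 mM KCl, 4 mM MgCl2), without ligand or with the indicated ligand. Median apparent KD per design.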

[1] = input ligand: theophylline 20 uM
[2] = input ligand: tryptophan 2.4 mM
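Also: bound reporter read as fluorescence of individual clusters on recovered sequencing chips by microscopy, with normalized cluster intensities fitted with a binding model.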

Sequence | apparent KD of K4 kissing-loop reporter (input ligand: FMN 200 uM) [nM] | apparent KD of K4 kissing-loop reporter (input ligand: arginine 13.2 mM) [nM] | apparent KD of K4 kissing-loop reporter (input ligand: none) [nM] | apparent KD of K4 kissing-loop reporter [1] [nM] | apparent KD of K4 kissing-loop reporter [2] [nM]
UUUUUAUGCAGUGAUGUUGCUAAUAUAACAGAGGAUAUGCAUUAAUGCAGAAGGCUGAAAUACUAUACUUUAAUAUAUUAAAUUU [JR_SSFMNA_Sub015] | 94.3 | 132 | 126 | 155 | 99.5
CCUGCCAGCACGGCCGCCACUUCUAUUGUAUCUAUUUUUGUAAUCCUUUAGGAGUGAUGUUUUUAAAGGACCGGGUGAUGGCUGA [theeternabot_exclusion_KL_Trp_B_14] | 446 | 248 | 398 | 356 | 410
UGUAUGUGAUUUGAUACCAGACCAGCUGGUGUUAGAUGAGUGAUGUUGAUCUAGGGUUGGGUCCCUUGGCAGCAAAUCGCAUACU [KL-SSTheoB22] | 593 | 391 | 557 | 435 | 463
GGUGGCGUUGUUGACAGCUCACCACGAGCCAAGGAUAUAGUUUCUUCUAGAAGGUGGAAUGACAAGUGAUGUUUGUACGACUGCU [theeternabot_exclusion_KL_FMN_A_28] | 254 | 233 | 254 | 294 | 185
AUUUAUUCGUACUUUCAGUGAUGUUGAUAACGAGGACCGGUACGGCCGCCACUCGAUUUGGCGAUUUUGUAUUUUUUAUUCUAUA [JR_SSTryptoA_Sub010] | 403 | 474 | 510 | 415 | 317
UGUCAUUGGUCUGAUACCAGAAGAAAUCUGGAGUGAUGUUCCAAGUCGACAAAAUGUCGCUUCCCUUGGCAGCAGACCGAUGACU [TheoBS 23 #SwitchBubble 13 #StaticStem] | 393 | 331 | 377 | 222 | 349
GAUAGGAAACUAUCAAAUCGGGAAACCGAUACCAGUAUGGAUUCAUACCCUUGGCAGCGGGAUUAUAAAAUAGGAGUGAUGUUCC [Theophylline A K4 16] | 219 | 213 | 220 | 241 | 189
ACGUAGUUCUAGGAUACCAGCCAAGGUCGCCAGGACAAAAGUCCUGGCGCCAGUGAUGUUGGCCCUUGGCAGCCUAGAACUACGA [Omei KL Theo B Exc B v6] | 195 | 176 | 176 | 174 | 203
GCGCGGGUCAGUGAUGUUGACCCUCGGAGACGAGGACCGGUACGGCCGCCACUCGUCCGCGCAGCUGAGGCAAAAGCCUCGGCAA [Omei KL Tryp A SS B v5] | 155 | 142 | 140 | 131 | 103
GUUGUCUACCAGAGGUGAUGUAUAGUAUCGCGAGGACCGGUACGGCCGCCACUCGUGAAGAGAAAGGAGUGAUGUUCCGUAAUGG [C10] | 255 | 271 | 293 | 301 | 118
UGAGAUAUGAGGGAUACCAGCCAUAAGGAAAGUGUGAUGAGUGAUGUUCUGACAAGCCAAGGCCCUUGGCAGCUUUAAUAGCAUC [whbob_SS_Theo_B_th77] | 328 | 191 | 280 | 167 | 267
CGAUGGAUGGCAGGAUAUAGACAUUGAGUGAUGUUCGAUGAUUAUCCAUAUUCCCGUCACCUAAGACUAGAAGGGCCAUCCAUCG | 554 | 167 | 205 | 191 | 198
UGACUACAUAAGGAAUAAUCCUAGUGAUGUUAGGAUAUGCUGAUAAGCAGAAGGAACGGAGAUCGAAGGAUCUCAUAUGUAGUCU [whbob_Ex_FMNA__2th194] | 275 | 101 | 103 | 121 | 103
GGCCGCAAGGCGAGCGCUCCCACUCCGGAAGGAGCGCCCGCAAGGGCAGGUAGGUCGCCGGAGUGAUGUUCCGGUGGAGGGCUCG [#2 Exclusion - Arginine A Attempt #16 (Inspired by Omei)] | 398 | 271 | 369 | 127 | 338
UACAGGGAUAGUGAUGUUAUCCCAUGUGAUACCAGUGCCAUCCAACACCCUUGGCAGCAUACGGGCAGUGAUGUUGUUCUUGGUU [Exclusion Theophylline A GF 13] | 96.1 | 85.4 | 93.7 | 87.1 | 88.5
CCCUCACGAGUGAUGUUCGUAGGGUACAGUCAGGAUAUCAUGCGGUUGAGAAGGGACAGGAAGGGCGGCGGCGGGUUGCUCACCG [Atera] | 154 | 163 | 192 | 204 | 150
GUGCGCGCGGCGGCCGCCACUCGCAUGAGAGUGAUGUUCUCGGGACUGACGGAAGUCAGUCAUGGGAGGACCGGGCCGGGCUGCG [#2 Same State - Tryptophan B Attempt #13 (HarryS)] | 360 | 958 | 208 | 1140 | 521
